Measurements as given in US20150203577A1 (Chugai, published 2015).
Positions count from the first letter of the chain named.

T1: mouse FcγRIII (mouse, UniProt P08508 31-215)
T1 construct: also called mFcγRIII; mFcgRIII
T1 chain: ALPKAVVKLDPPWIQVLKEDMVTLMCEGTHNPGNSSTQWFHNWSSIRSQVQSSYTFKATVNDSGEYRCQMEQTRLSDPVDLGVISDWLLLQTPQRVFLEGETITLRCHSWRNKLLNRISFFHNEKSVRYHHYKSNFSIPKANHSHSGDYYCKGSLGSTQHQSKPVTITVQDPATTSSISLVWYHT

T2: mouse FcγRIII (mouse, UniProt P08508 31-215)
T2 construct: Extracellular domain with C-terminal His tag; also called mFcγRIII; mFcgRIII
T2 chain: T1 chain

T3: mouse FcγRII (mouse, UniProt P08101 30-210)
T3 construct: Extracellular domain with C-terminal His tag; also called mFcγRII; mFcgRII
T3 sequence: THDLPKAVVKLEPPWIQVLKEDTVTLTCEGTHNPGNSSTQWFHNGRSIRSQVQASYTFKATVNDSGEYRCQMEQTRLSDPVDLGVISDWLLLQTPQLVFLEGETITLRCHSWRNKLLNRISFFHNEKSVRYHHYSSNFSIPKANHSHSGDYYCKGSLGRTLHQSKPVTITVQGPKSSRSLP

T4: mouse FcγRII extracellular domain with C-terminal His tag (mouse, UniProt P08101 30-210)
T4 construct: Made on the basis of NCBI NP-034317.1; also called mFcγRII; mFcgRII
T4 sequence: T3 sequence

T5: mouse FcγRIII extracellular domain with C-terminal His tag (mouse, UniProt P08508 31-215)
T5 construct: Made on the basis of NCBI NP-034318.2; also called mFcγRIII; mFcgRIII
T5 chain: T1 chain

B1: H237-MB636/MRAL-k0 (antibody, mouse IgG1, kappa)
heavy: QVQLQESGPGLVKPSETLSLTCAVSGHSISHDHAWSWVRQPPGEGLEWIGFISYSGITNYNPSLQGRVTISRDNSKNTLYLQMNSLRAEDTAVYYCARSLARTTAMDYWGEGTLVTVSSAKTTPPSVYPLAPGSAAQTNSMVTLGCLVKGYFPEPVTVTWNSGSLSSGVHTFPAVLQSDLYTLSSSVTVPSSTWPSETVTCNVAHPASSTKVDKKIVPRDCGCKPCICEVYEVENVFIFPPKPKDVLTITLTPKVTCVVVDISKDDPEVQFSWFVDDVEVHTAQTQPREEQFNSTFRSVSELPIMHQDWLNGKEFKCRVNSAAFPAPIEKTISKTKGRPKAPQVYTIPPPKEQMAKDKVSLTCMITDFFPEDITVEWQWNGQPAENYKNTQPIMDTDGSYFVYSKLNVQKSNWEAGNTFTCSVLHEGLHNHHTEKSLSHSPGK
light: not shown
notes: mouse IgG1 CH variant; copies: 2 + 2
B2: H237-MB642/MRAL-k0 (antibody, mouse IgG1, kappa)
heavy: B1 heavy with V230D, N235Y
light: not shown
notes: as for B1
B3: H237-MB657/MRAL-k0 (antibody, mouse IgG1, kappa)
heavy: B1 heavy with V230P, Y231N, N235F
light: not shown
notes: as for B1
B4: MB750 (antibody, mouse IgG1, kappa)
heavy: B1 heavy with V230P, Y231N, N235L, A322D
light: not shown
notes: CH name; VH H237 + CH, L chain MRAL-k0; copies: 2 + 2
B5: H237-MB418/MRAL-k0 (antibody, mouse IgG1, kappa)
heavy: B1 heavy with E229T, V230D, N235D
light: not shown
notes: copies: 2 + 2
B6: H237-MB419/MRAL-k0 (antibody, mouse IgG1, kappa)
heavy: B1 heavy with E229D, V230N, N235D
light: not shown
notes: copies: 2 + 2
B7: H237-MB420/MRAL-k0 (antibody, mouse IgG1, kappa)
heavy: B1 heavy with E229I, V230N, N235D
light: not shown
notes: copies: 2 + 2
B8: H237-MB421/MRAL-k0 (antibody, mouse IgG1, kappa)
heavy: B1 heavy with E229P, V230N, N235D
light: not shown
notes: copies: 2 + 2
B9: H237-MB422/MRAL-k0 (antibody, mouse IgG1, kappa)
heavy: B1 heavy with E229Q, V230N, N235D
light: not shown
notes: copies: 2 + 2
B10: H237-MB423/MRAL-k0 (antibody, mouse IgG1, kappa)
heavy: B1 heavy with E229T, V230N, N235D
light: not shown
notes: copies: 2 + 2
B11: H237-MB424/MRAL-k0 (antibody, mouse IgG1, kappa)
heavy: B1 heavy with E229D, V230P, Y231A, N235D
light: not shown
notes: copies: 2 + 2
B12: H237-MB426/MRAL-k0 (antibody)
heavy: B1 heavy with E229P, V230P, Y231A, N235D
light: not shown
notes: copies: 2 + 2
B13: H237-MB427/MRAL-k0 (antibody, mouse IgG1, kappa)
heavy: B1 heavy with E229Q, V230P, Y231A, N235D
light: not shown
notes: copies: 2 + 2
B14: H237-MB428/MRAL-k0 (antibody, mouse IgG1, kappa)
heavy: B1 heavy with E229T, V230P, Y231A, N235D
light: not shown
notes: copies: 2 + 2
B15: H237-MB429/MRAL-k0 (antibody, mouse IgG1, kappa)
heavy: B1 heavy with E229D, V230P, Y231N, N235D
light: not shown
notes: copies: 2 + 2
B16: H237-MB430/MRAL-k0 (antibody, mouse IgG1, kappa)
heavy: B1 heavy with E229I, V230P, Y231N, N235D
light: not shown
notes: copies: 2 + 2
B17: H237-MB431/MRAL-k0 (antibody, mouse IgG1, kappa)
heavy: B1 heavy with E229P, V230P, Y231N, N235D
light: not shown
notes: copies: 2 + 2
B18: H237-MB433/MRAL-k0 (antibody, mouse IgG1, kappa)
heavy: B1 heavy with E229T, V230P, Y231N, N235D
light: not shown
notes: copies: 2 + 2
B19: H237-MB434/MRAL-k0 (antibody, mouse IgG1, kappa)
heavy: B1 heavy with E229D, V230T, N235D
light: not shown
notes: copies: 2 + 2
B20: H237-MB435/MRAL-k0 (antibody, mouse IgG1, kappa)
heavy: B1 heavy with E229I, V230T, N235D
light: not shown
notes: copies: 2 + 2
B21: H237-MB436/MRAL-k0 (antibody, mouse IgG1, kappa)
heavy: B1 heavy with E229P, V230T, N235D
light: not shown
notes: copies: 2 + 2
B22: H237-MB437/MRAL-k0 (antibody, mouse IgG1, kappa)
heavy: B1 heavy with E229Q, V230T, N235D
light: not shown
notes: copies: 2 + 2
B23: H237-MB438/MRAL-k0 (antibody, mouse IgG1, kappa)
heavy: B1 heavy with E229T, V230T, N235D
light: not shown
notes: copies: 2 + 2

Molecular target: T1, mouse FcγRIII
Assay: SPR (Biacore), antibody captured on Protein L, mFcγR as analyte
Method: (§1) Each altered antibody was analyzed for its interaction with each Fcγ receptor prepared above using Biacore T100 (GE Healthcare Japan Corp.), Biacore T200 (GE Healthcare Japan Corp.), Biacore A100, or Biacore 4000. The running buffer used was HBS-EP+ (GE Healthcare Japan Corp.). The assay temperature was set to 25° C. The sensor chips used were chips prepared by immobilizing Protein L (ACTIGEN or BioVision) onto Series S Sensor Chip CM5 (GE Healthcare Japan Corp.) or Series S Sensor Chip CM4 (GE Healthcare Japan Corp.) by the amine coupling method.
(§2) In order to calculate the KD value of each altered antibody for FcγR, kinetic analysis was conducted according to the following method: first, the antibody of interest was captured onto any of these chips and allowed to interact with mFcγR diluted with a running buffer. For the obtained sensorgram, the assay results were globally fit into the 1:1 Langmuir binding model using Biacore Evaluation Software to calculate an association rate constant ka (L/mol/s) and a dissociation rate constant kd (1/s). From these values, the dissociation constant KD (mol/L) was calculated.

| Binder | relative mFcγRIII-binding activity (mIgG1 = 1) [fold] |
| --- | --- |
| B1 | 0.17 |
| B2 | 0.1 |
| B3 | 0.09 |

Molecular target: T2, mouse FcγRIII
Assay: SPR (Biacore T200); KD of H237-mIgG1/MRAL-k0 / KD of variant
Description: (§3) The antibody H chain variable region used was the variable region H237 (SEQ ID NO: 1) of the H chain VH3-IgG1 of the anti-IL-6 receptor antibody Fv4-IgG1 described in WO2009/125825. The antibody L chain commonly used was the L chain MRAL-k0 (SEQ ID NO: 2) of the anti-IL-6 receptor antibody tocilizumab. […] These variants were expressed and purified by the method of Reference Example 1 and evaluated for their binding to mFcγRII and mFcγRIII by the method of Reference Example 2 using Biacore T200.
as §1

| Binder | relative mFcγRIII-binding activity (mIgG1 = 1) [fold] |
| --- | --- |
| B4 | 0.4 |

These binders were tested against T3, mouse FcγRII in the same assay as above.
Description: as §3, §1

| Binder | relative mFcγRII-binding activity (mIgG1 = 1) [fold] |
| --- | --- |
| B4 | 29.4 |

Molecular target: T2, mouse FcγRIII
Assay: SPR (Biacore T200); KD of H237-MB630/MRAL-k0 / KD of variant
Description: as §3, §1, §2

| Binder | Relative mFcγRIII-binding activity (MB630 = 1) [fold] |
| --- | --- |
| B4 | 2.06 |

Each binder was assayed against T3, mouse FcγRII in the same assay as above.
Description: as §3, §1, §2

| Binder | Relative mFcγRII-binding activity (MB630 = 1) [fold] |
| --- | --- |
| B4 | 1.77 |

These binders were tested against T4, mouse FcγRII extracellular domain with … (assay: SPR Biacore T200).

| Binder | Kd [nM] | relative mFcγRII-binding activity (mIgG1 = 1) |
| --- | --- | --- |
| B5 | 0.802 | 262 |
| B6 | 0.974 | 216 |
| B7 |  | 124 |
| B8 |  | 178 |
| B9 |  | 144 |
| B10 |  | 143 |
| B11 |  | 104 |
| B12 |  | 112 |
| B13 | 0.966 | 217 |
| B14 | 0.977 | 215 |
| B15 |  | 137 |
| B16 | 1.02 | 207 |
| B17 |  | 113 |
| B18 | 0.694 | 303 |
| B19 | 0.818 | 257 |
| B20 |  | 146 |
| B21 |  | 151 |
| B22 |  | 198 |
| B23 | 0.742 | 283 |

Molecular target: T5, mouse FcγRIII extracellular domain with …
Assay: SPR Biacore T200

| Binder | Kd [nM] | relative mFcγRIII-binding activity (mIgG1 = 1) |
| --- | --- | --- |
| B5 | 14.1 | 20 |
| B6 | 24.3 | 11.6 |
| B7 |  | 7.1 |
| B8 |  | 9 |
| B9 |  | 8.9 |
| B10 |  | 9.2 |
| B11 |  | 5.1 |
| B12 |  | 4.4 |
| B13 | 40.3 | 7 |
| B14 | 32 | 8.8 |
| B15 |  | 6.8 |
| B16 | 45 | 6.3 |
| B17 |  | 4.2 |
| B18 | 24.4 | 11.6 |
| B19 | 18.3 | 15.5 |
| B20 |  | 8.7 |
| B21 |  | 8.4 |
| B22 |  | 11.5 |
| B23 | 17.9 | 15.7 |

The binders below were run against T4, mouse FcγRII extracellular domain with … (assay: SPR Biacore T200; KD mFcγRIII / KD mFcγRII).

| Binder | I/A (mFcγRII selectivity) | relative I/A (mFcγRII selectivity) (mIgG1 = 1) |
| --- | --- | --- |
| B5 | 17.6 | 13.1 |
| B6 | 25 | 18.6 |
| B7 |  | 17.5 |
| B8 |  | 19.9 |
| B9 |  | 16.3 |
| B10 |  | 15.5 |
| B11 |  | 20.4 |
| B12 |  | 25.2 |
| B13 | 41.7 | 31.1 |
| B14 | 32.7 | 24.4 |
| B15 |  | 20.3 |
| B16 | 44.3 | 33 |
| B17 |  | 26.8 |
| B18 | 35.2 | 26.2 |
| B19 | 22.3 | 16.7 |
| B20 |  | 16.8 |
| B21 |  | 18 |
| B22 |  | 17.3 |
| B23 | 24.1 | 18 |
